Measurements published in article PMC5559510.

Columns and labels:
[1] = target: TMR labeled SNAP-25a Δ9 (residues 1–197, S187C) (human) (UniProt P60880); assay: FRET or BRET; two-membrane system, 37°C; Munc18-1/full-length syntaxin-1 on t-liposomes, BDPY-full-length synaptobrevin-2 (S61C) on v-liposomes, TMR-SNAP-25a Δ9 (S187C), 0.5 μM Munc13-1 C1-C2B-MUN, with or without 0.5 μM Syt1 C2AB, 0.2 mM EDTA; two-phase exponential decay
[2] = target: TMR-labeled SNAP-25a (S187C) (human) (UniProt P60880); assay: FRET or BRET; one-membrane system, 37°C; Munc18-1/full-length syntaxin-1 on t-liposomes, TMR-SNAP-25a (S187C), BDPY-synaptobrevin-2 (29–93, S61C) in solution, 0.5 μM Munc13-1 C1-C2B-MUN, with or without 0.5 μM Syt1 C2AB, 0.2 mM EDTA; two-phase exponential decay
[3] = target: TMR-labeled SNAP-25a (S187C) (human) (UniProt P60880); assay: FRET or BRET; membrane-free, 37°C; 5 μM co-expressed Munc18-1/syntaxin-1 (1–261), 5 μM TMR-SNAP-25a (S187C), 1 μM BDPY-synaptobrevin-2 (29–93, S61C), 30 μM Munc13-1 MUN domain, with or without 2 μM Syt1 C2AB; fitted to a one-phase exponential decay

kfast of ternary SNARE complex formation (no Syt1) [1] [s⁻¹] | kfast of ternary SNARE complex formation (with Syt1 C2AB) [1] [s⁻¹] | τfast of ternary SNARE complex formation (no Syt1) [1] [s] | τfast of ternary SNARE complex formation (with Syt1 C2AB) [1] [s] | kfast of ternary SNARE complex formation (no Syt1) [2] [s⁻¹] | kfast of ternary SNARE complex formation (with Syt1 C2AB) [2] [s⁻¹] | τfast of ternary SNARE complex formation (no Syt1) [2] [s] | τfast of ternary SNARE complex formation (with Syt1 C2AB) [2] [s] | kfast of ternary SNARE complex formation (no Syt1) [3] [s⁻¹] | kfast of ternary SNARE complex formation (with Syt1 C2AB) [3] [s⁻¹] | τfast of ternary SNARE complex formation (no Syt1) [3] [s] | τfast of ternary SNARE complex formation (with Syt1 C2AB) [3] [s] | Substance
0.0123 | 0.0249 | 81.4 | 40.1 | – | – | – | – | – | – | – | – | BDPY-labeled full-length synaptobrevin-2 (residues 1–116, S61C), on v-liposomes (from UniProt P63045 1-116) (natural protein)
– | – | – | – | 0.00135 | 0.0152 | 740 | 65.8 | 0.0013 | 0.00354 | 770 | 282 | BDPY-labeled synaptobrevin-2 cytoplasmic domain (residues 29–93, S61C) (from UniProt P63045 29-93) (domain or fragment)
